# Reference: patent US6713606
# T1: purified human Lysn-Plasminogen, P00747
# T1 chain: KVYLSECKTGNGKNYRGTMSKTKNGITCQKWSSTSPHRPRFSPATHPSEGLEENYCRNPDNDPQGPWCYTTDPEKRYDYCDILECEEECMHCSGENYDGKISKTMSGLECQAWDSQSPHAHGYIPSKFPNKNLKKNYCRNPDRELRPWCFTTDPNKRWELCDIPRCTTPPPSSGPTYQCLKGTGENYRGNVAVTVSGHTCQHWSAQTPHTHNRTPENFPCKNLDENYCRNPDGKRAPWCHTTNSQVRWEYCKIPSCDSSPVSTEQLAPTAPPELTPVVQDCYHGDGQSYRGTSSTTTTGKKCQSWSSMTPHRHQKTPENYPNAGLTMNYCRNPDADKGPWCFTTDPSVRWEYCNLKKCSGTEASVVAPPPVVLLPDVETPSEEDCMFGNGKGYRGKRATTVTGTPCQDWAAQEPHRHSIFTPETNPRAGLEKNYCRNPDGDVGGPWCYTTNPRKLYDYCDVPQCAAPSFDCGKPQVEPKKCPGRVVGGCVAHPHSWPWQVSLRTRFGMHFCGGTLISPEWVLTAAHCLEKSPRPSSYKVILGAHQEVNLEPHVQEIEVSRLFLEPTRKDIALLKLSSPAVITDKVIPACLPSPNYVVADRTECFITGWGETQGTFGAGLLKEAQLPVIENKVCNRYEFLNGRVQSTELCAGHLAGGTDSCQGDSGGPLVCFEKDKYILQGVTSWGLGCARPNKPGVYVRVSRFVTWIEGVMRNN
# B1: thiolated streptokinase (protein)
# chain: IAGPEWLLDRPSVNNSQLVVSVAGTVEGTNQDISLKFFEIDLTSRPAHGGKTEQGLSPKSKPFATDSGAMSHKLEKADLLKAIQEQLIANVHSNDDYFEVIDFASDATITDRNGKVYFADKDGSVTLPTQPVQEFLLSGHVRVRPYKEKPIQNQAKSVDVEYTVQFTPLNPDDDFRPGLKDTKLLKTLAIGDTITSQELLAQAQSILNKNHPGYTIYERDSSIVTHDNDIFRTILPMDQEFTYRVKNREQAYRINKKSGLNEEINNTDLISEKYYVLKKGEKPYDPFDRSHLKLFTIKYVDVDTNELLKSEQLLTASERNLDFRDLYDPRDKAKLLYNNLDAFGIMDYTLTGKVEDNHDDTNRIITVYMGKRPEGENASYHLAYDKDRYTEEEREVYSYLRYTGTPIPDNPNDK
# Molecular target: T1, purified human Lysn-Plasminogen, P00747
protein,measurement,value
B1,plasmin generation in the plasminogen activation assay (S-2251 substrate units),"thiolated SK (1 nM), generated plasmin at a nearly linear of 4225 SU/ml"
